US20020110800

Molecular target: wild-type TrkA, baculovirus-expressed, activated (autophosphorylated) (UniProt P04629)

B1: SHP-2 (enzyme, UniProt Q06124 2-593, looked up, species assumed)
Tyrosine-protein phosphatase non-receptor type 11: TSRRWFHPNITGVEAENLLLTRGVDGSFLARPSKSNPGDFTLSVRRNGAVTHIKIQNTGDYYDLYGGEKFATLAELVQYYMEHHGQLKEKNGDVIELKYPLNCADPTSERWFHGHLSGKEAEKLLTEKGKHGSFLVRESQSHPGDFVLSVRTGDDKGESNDGKSKVTHVMIRCQELKYDVGGGERFDSLTDLVEHYKKNPMVETLGTVLQLKQPLNTTRINAAEIESRVRELSKLAETTDKVKQGFWEEFETLQQQECKLLYSRKEGQRQENKNKNRYKNILPFDHTRVVLHDGDPNEPVSDYINANIIMPEFETKCNNSKPKKSYIATQGCLQNTVNDFWRMVFQENSRVIVMTTKEVERGKSKCVKYWPDEYALKEYGVMRVRNVKESAAHDYTLRELKLSKVGQGNTERTVWQYHFRTWPDHGVPSDPGGVLDFLEEVHHKQESIMDAGPVVVHCSAGIGRTGTFIVIDILIDIIREKGVDCDIDVPKTIQMVRSQRSGMVQTEAQYRFIYMAVQHYIETLQRRIEEEQKSKRKGHEYTNIKYSLADQTSGDQSPLPPCTPTPPCAEMREDSARVYENVGLMQQQKSFR
dephosphorylation of 32P-autophosphorylated Trk in vitro: approximately 5-fold dephosphorylation
